Measurements published in patent US20100092465A1, “TREATMENT OF GRAFT-VERSUS-HOST DISEASE” (priority 2006, published 2010).
Values joined by “and” are separate entries in the source; they are usually repeats but may differ in a detail not shown here. Identical values can stand only once.

Tests used:
[1] = molecular target: T1, muIL-27 (Mus musculus, UniProt O35228+Q8K3I6); test: Phospho-STAT3 neutralization assay, mouse spleens, muIL-27; type: cell-based; conditions: ligand muIL-27 at EC90
T1 sequence (O35228 19-228): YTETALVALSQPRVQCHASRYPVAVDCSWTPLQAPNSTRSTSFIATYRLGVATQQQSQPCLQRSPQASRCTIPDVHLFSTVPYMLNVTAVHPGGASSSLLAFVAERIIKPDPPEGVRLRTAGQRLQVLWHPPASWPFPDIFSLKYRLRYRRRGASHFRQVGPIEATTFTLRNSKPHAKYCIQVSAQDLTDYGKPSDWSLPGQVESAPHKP
T1 sequence (Q8K3I6 29-234): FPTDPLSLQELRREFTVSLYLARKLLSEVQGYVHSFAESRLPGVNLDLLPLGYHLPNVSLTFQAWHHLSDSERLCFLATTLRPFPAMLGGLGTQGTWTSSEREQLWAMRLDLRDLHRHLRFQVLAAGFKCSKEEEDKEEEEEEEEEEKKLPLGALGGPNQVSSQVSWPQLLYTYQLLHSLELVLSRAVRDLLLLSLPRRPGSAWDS
Description: (§1) Whole mouse spleens were harvested from C57 B1/6 mice and washed two times with 1×PBS before being plated out at 2×10^5 cells/well in assay media (RPMI 1640 plus 10% fetal bovine serum) in 96-well, round-bottom tissue culture plates. Total human PBMC (peripheral blood mononuclear cells) were thawed from a frozen vial collected from a leukapherisis donation and washed two times with 1×PBS before being plated out at 10^6 cells/well in assay media in 96-well, round-bottom tissue culture plates. […] Following pre-incubation, treatments were added to the plates containing the cells and incubated together at 37° C. for 15 minutes.
(§2) Following incubation, cells were washed with ice-cold wash buffer (BIO-PLEX Cell Lysis Kit, BIO-RAD Laboratories, Hercules, Calif.) and put on ice to stop the reaction according to manufacturer's instructions. […]
(§3) Capture beads (BIO-PLEX Phospho-Stat3 Assay, BIO-RAD Laboratories) were combined with 50 μL of 1:1 diluted lysates and added to a 96-well filter plate according to manufacture's instructions (BIO-PLEX Phosphoprotein Detection Kit, BIO-RAD Laboratories). […] After the final wash, beads were resuspended in 125 μL/well of bead suspension buffer, shaken for 30 seconds, and read on an array reader (BIO-PLEX, BIO-RAD Laboratories) according to the manufacture's instructions. Data were analyzed using analytical softward (BIO-PLEX MANAGER 3.0, BIO-RAD Laboratories). […]

[2] = molecular target: T2, huIL-27 (Homo sapiens, UniProt Q14213+Q8NEV9); test: Phospho-STAT3 neutralization assay, total human PBMCs, huIL-27; type: cell-based; conditions: Total Human PBMCs; ligand huIL-27 at EC90
T2 sequence (Q14213 21-229): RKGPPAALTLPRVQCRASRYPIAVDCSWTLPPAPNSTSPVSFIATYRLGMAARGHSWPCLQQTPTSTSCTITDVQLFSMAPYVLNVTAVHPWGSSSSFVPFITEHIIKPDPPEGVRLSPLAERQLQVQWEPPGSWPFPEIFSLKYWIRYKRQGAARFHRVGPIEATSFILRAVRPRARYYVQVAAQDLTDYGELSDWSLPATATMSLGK
T2 sequence (Q8NEV9 29-243): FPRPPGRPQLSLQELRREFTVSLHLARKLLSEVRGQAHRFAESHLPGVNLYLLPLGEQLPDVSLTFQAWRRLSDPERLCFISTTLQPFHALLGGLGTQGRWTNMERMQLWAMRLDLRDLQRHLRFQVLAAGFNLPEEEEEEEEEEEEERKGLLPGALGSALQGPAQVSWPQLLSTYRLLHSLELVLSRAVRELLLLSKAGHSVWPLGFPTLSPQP
Description: as §1, §2, §3

[3] = molecular target: T1, muIL-27; test: Phospho-STAT3 neutralization assay, total human PBMCs, muIL-27; type: cell-based; conditions: ligand muIL-27 at EC90
Description: as §1, §2, §3

[4] = molecular target: T3, mouse ligand (single-chain IL27) (Mus musculus, UniProt O35228+Q8K3I6); test: SPR kinetics of soluble receptors with mouse IL27 ligand; conditions: binding with mouse ligand; gp130 not included
T3 construct: amino-terminal peptide tag (FLAG in lot A1426F) (N)
T3 sequence (O35228+Q8K3I6 with tags, fused parts or gaps): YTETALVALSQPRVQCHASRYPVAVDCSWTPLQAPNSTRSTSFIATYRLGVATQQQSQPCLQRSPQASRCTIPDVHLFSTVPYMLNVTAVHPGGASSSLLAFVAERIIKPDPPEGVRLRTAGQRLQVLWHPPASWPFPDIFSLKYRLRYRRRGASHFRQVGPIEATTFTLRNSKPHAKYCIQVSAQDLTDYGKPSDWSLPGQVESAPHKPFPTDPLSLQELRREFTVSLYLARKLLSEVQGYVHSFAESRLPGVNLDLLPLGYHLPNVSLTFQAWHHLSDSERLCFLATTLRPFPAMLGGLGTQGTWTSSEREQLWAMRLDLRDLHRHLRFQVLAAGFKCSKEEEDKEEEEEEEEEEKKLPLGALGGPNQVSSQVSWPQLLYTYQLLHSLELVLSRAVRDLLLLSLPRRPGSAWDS
Protocol: Kinetic rate and affinity constant values for the mouse (IL27RAm(mFc1), Example 3) and human (IL27RA-Fc5, Example 4) soluble receptors were obtained by surface plasmon resonance (SPR) using an automated instrument (BIACORE 3000; Biacore International AB, Uppsala, Sweden). The mouse soluble receptor was tested against mouse ligand (lot A1418F), and the human soluble receptor was tested against both mouse (A1426F) and human (A1534F) ligands. For determination of the kinetic rate constants for the receptor-ligand interactions, the gp130 molecule was not included as part of the receptor complex.
The IL27 ligands used in this study were single-chain molecules comprising EBI3 connected by its C-terminus to the N-terminus of IL-27 p28 via a polypeptide linker. Each of the ligands included an amino-terminal peptide tag.
For the mouse IL27RA study, the soluble receptor was captured onto the chip surface by an isotype-specific anti-mouse Fc antibody (obtained from Jackson ImmunoResearch Laboratories, Inc., West Grove, Pa.) covalently immobilized to the chip (BIACORE CM5 chip) using the standard amine coupling protocol specified by the instrument manufacturer. […]
All data were assessed using software provided with the instrument (BIACORE Evaluation software v. 3.2). […]

[5] = molecular target: T4, mouse IL-27 (Mus musculus, UniProt O35228+Q8K3I6); test: IL-27 inhibition of IL-2 production neutralized by IL-27RA Fc; type: cell-based
T4 sequence (O35228+Q8K3I6 with tags, fused parts or gaps): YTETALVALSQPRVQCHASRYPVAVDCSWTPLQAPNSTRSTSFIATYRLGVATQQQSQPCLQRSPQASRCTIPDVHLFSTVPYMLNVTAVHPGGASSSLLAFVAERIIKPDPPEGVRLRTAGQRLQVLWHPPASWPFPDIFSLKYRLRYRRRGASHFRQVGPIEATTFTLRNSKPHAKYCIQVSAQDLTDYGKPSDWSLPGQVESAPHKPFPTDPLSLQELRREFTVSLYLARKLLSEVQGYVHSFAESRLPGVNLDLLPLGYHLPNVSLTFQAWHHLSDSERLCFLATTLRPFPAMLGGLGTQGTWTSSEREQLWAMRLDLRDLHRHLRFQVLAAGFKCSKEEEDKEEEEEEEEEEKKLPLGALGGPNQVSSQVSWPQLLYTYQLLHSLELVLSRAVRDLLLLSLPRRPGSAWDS
Protocol: For testing of the soluble receptor, single-chain mouse IL-27 (10 ng/ml) was preincubated for 30 minutes at 37 degrees C. with either IL27RAm(mFc1) (10.0 and 5.0 .micro.g/ml), IL27RA-Fc5, mouse Fc1 protein (10.0 and 5.0 .micro.g/ml), human Fc5 protein (10.0 and 5.0 .micro.g/ml), or no recombinant protein in wells of the anti-CD3 coated plates. 4×10^5 CD4^+ CD62L high cells were added to the wells. Duplicate plates were set up for all experimental conditions. The plates were then cultured at 37 degrees for up to 72 hours. Cell supernatants were collected from one set of plates at 48 hours and from the duplicate set of plates at 72 hours. The supernatants were stored frozen at −80° C.

[6] = Pharmacokinetics of soluble receptors in female C57B1/6 mice; type: in vivo, mouse; conditions: for clearance from the circulation, comparison in words: mouse Fc1 fusion versus human Fc5 fusion
Protocol: Studies were performed to evaluate the pharmacokinetics of the mouse (IL-27RAm(mFc1)) and human (IL-27RA-Fc5) soluble receptors in female C57B1/6 mice.
Serum was generated from each sample and analyzed by a qualified enzyme-linked immunosorbant assay (ELISA). The resulting mean serum concentration versus time profiles were then subjected to noncompartmental pharmacokinetic analyses. The following pharmacokinetic parameters were calculated: C0 and Cmax (extrapolated concentration at time zero and maximum serum concentration, respectively), Tmax (time to achieve maximum concentration), t1/2 λz (terminal half-life), AUC0-t (area under the concentration versus time curve from time zero to the last measurable time point), AUCINF (area under the concentration versus time curve extrapolated to infinity), Cl or Cl/F (clearance or clearance divided by bioavailable fraction, respectively), VSS or VZ/F (steady state volume of distribution or volume of distribution divided by the bioavailable fraction, respectively), and F (bioavailable fraction).

[7] = molecular target: T2, huIL-27; test: Phospho-STAT3 neutralization assay, mouse spleens, huIL-27; type: cell-based; conditions: Mouse Spleens; ligand huIL-27 at EC90
Description: as §1, §2, §3

B1: IL-27RAm(mFc1): fusion protein comprising the extracellular domain of mouse IL27RA and a wild type BALB/c mouse gamma2a constant region Fc tag (protein)
chain: TRPHGSPGPLQCYSVGPLGILNCSWEPLGDLETPPVLYHQSQKYHPNRVWEVKVPSKQSWVTIPREQFTMADKLLIWGTQKGRPLWSSVSVNLETQMKPDTPQIFSQVDISEEATLEATVQWAPPVWPPQKVLICQFRYKECQAETWTRLEPQLKTDGLTPVEMQNLEPGTCYQVSGRCQVENGYPWGEWSSPLSFQTPFLDPEDVWVSGTVCETSGKRAALLVWKDPRPCVQVTYTVWFGAGDITTTQEEVPCCKSPVPAWMEWAVVSPGNSTSWVPPTNLSLVCLAPESAPCDVGVSSADGSPGIKVTWKQGTRKPLEYVVDWAQDGDSLDKLNWTRLPPGNLSTLLPGEFKGGVPYRITVTAVYSGGLAAAPSVWGFREELVPLAGPAVWRLPDDPPGTPVVAWGEVPRHQLRGQATHYTFCIQSRGLSTVCRNVSSQTQTATLPNLHLGSFKLWVTVSTVAGQGPPGPNLSLHLPDNRIRWK
[1]
  IC50: 0.18 nM
[2]
  IC50: 1370 nM
[3]
  IC50: 4.83 nM
[4]
  ka: 1e+07 M⁻¹ s⁻¹
  kd: 0.0012 s⁻¹
[5]; 48 hr, protein conc. 5 (µg/ml; Fc controls in molar equiv.) + IL-27 10 ng/ml
  IL-2 concentration: 4021.15 pg/mL
[5]; 48 hr, protein conc. 10 (µg/ml; Fc controls in molar equiv.) + IL-27 10 ng/ml, listed as mIL-27RA
  IL-2 concentration: 5215.59 pg/mL and 4922.26 pg/mL
[5]; 72 hr, protein conc. 5 (µg/ml; Fc controls in molar equiv.) + IL-27 10 ng/ml
  IL-2 concentration: 5744.95 pg/mL
[5]; 72 hr, protein conc. 10 (µg/ml; Fc controls in molar equiv.) + IL-27 10 ng/ml, listed as mIL-27RA
  IL-2 concentration: 6704.62 pg/mL and 12186.7 pg/mL
[5]; naïve CD4 T cells
  inhibition (partial block) of the ability of mouse IL-27 to inhibit IL-2 production: ~50%
[6]; IP, 100 μg
  AUC0-24: 98.2 µg·h/mL
  AUCINF: 102 µg·h/mL
  Cl/F: 0.983 mL/h
  Tmax: 1 h
  t1/2 λz: 5.17 h
[6]; IP, 100 μg, serum
  Cmax: 13200 ng/mL
[6]; IV, 100 μg
  AUC0-24: 157 µg·h/mL
  AUCINF: 162 µg·h/mL
  Cl: 0.618 mL/h
  Vss: 3.05 mL
  t1/2 λz: 5.25 h
[6]; IV, 100 μg, serum
  Co: 36.2 µg/mL
[6]; SC, 100 μg
  AUC0-24: 56.5 µg·h/mL
  Tmax: 3 h
[6]; SC, 100 μg, serum
  Cmax: 7950 ng/mL
[6]
  clearance from the circulation, comparison in words: more rapid clearance
[6]; listed as Zcytor1 fragment polypeptide joined to a wild-type murine immunoglobulin gamma2a
  clearance from the circulation, comparison in words: rapidly cleared from the circulation
[7]
  IC50: 9.3 nM
